This note sets out measurements from the nanobody polyreactivity screen of Harvey et al. (2022).

This series can be described thus: yeast display, Sf9 membrane polyspecificity reagent, FACS + sequencing; frameworks hold sequencing errors. The method in brief:
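Galactose-induced (36–48 hours) yeast carrying a synthetic nanobody display library were exposed to 10% biotinylated, detergent-solubilized Sf9 membrane reagent at 4 °C for 1 hour. FACS followed streptavidin microbead enrichment, using low and high (top ~1%) gates for expression (anti-HA) and reagent binding (streptavidin). Colony PCR, MiSeq 2 × 250 sequencing and CDR-length filtering followed. Labels for polyreactivity reflect the gate of origin.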
Regarding “QVQLVESGGGLVQAGGSLRLSCAASGGIFSYNVMGWYRQAPGKERELVAAITRGGSTYYADSVKGRFTISRDNAKNTVYLQMNSLKPEDTAVYYCAAVRNYLWTGYDYWGQGTQVTVSS”, the “polyreactivity (PSR sort gate)” value is reported as “high polyreactivity”. As to “QVQLVESGGGLVQAGGSLRLSCAASGITFSNSAMGWYRQAPGKERELVASITRRGTRTYYADSVKGRFTISRDNAKNTVYLQMNSLKPEDTAVYYCNRSFYSWIDLIYGGYDYWGQGTQVTVSS”, the “polyreactivity (PSR sort gate)” value is listed as “high polyreactivity”. Turning to “QVQLVESGGGLVQAGGSLRLSCAASGFIFGSNVMGWYRQAPGKERELVAAITSGSRTYYADSVKGRFTISRDNAKNTVYLQMNSLKPEDTAVYYCAKRNPIKYYGGGYWGQGTQVTVSS”, the “polyreactivity (PSR sort gate)” value is given as “high polyreactivity”. Take “QVQLVESGGGLVQAGGSLRLSCAASGSTIYPNAMGWYRQAPGKERELVARISRTGGSTYADSVKGRFTISRDNAKNTVYLQMNSLIPEDSAVYYCARSYASFSWLRTKEPYEYWGQGTQVTVSS”: the “polyreactivity (PSR sort gate)” value is recorded as “low polyreactivity”. Take “HVQLVESGGGLVQAGGSLRLSCAASGSILDGKALGWYRQAPGKERERVAGISESDGSTNYADSVKGRFTISRDNAKNTVYLQMNSLKPEDTAVSYCAADIWTSGDIPYDYWGQGTQVTVSS”: the “polyreactivity (PSR sort gate)” value was “low polyreactivity”.

As for “QVQLVESGGGLVQAGGSLRLSCAASGSIFGDNAMGWYRQAPGKERELVAAISTRGGRTYYADSVKGRFTISRDNAKNTVYLQMNSLKPEDSAVYYCATSGGRPYKYEYWGQGTQVTVSS”, the “polyreactivity (PSR sort gate)” value is listed as “high polyreactivity”. For “QVQLVESGGGLVQAGGSLRLSCAASGSTFTYYTMGWYRQAPGKERELVAAITSGTSTNYADSVKGRFTISRDNAKNTVYLQMNSLKPEDTAVYYEYDYWGQGTQVTVSS”, the “polyreactivity (PSR sort gate)” value was “low polyreactivity”. Regarding “QVQLVESGGGLVQAGGSLRLSCAASGSNYPPNAMGWYRQAPGKEREFVASITSSGGITNYADSVKGRFTISRDNAKNTVYLQMNSLKPVDTAVYYCAAKYYGGTRFRPYGYWGQGTQVTVSS”, the “polyreactivity (PSR sort gate)” value is listed as “high polyreactivity”. Then “QVQLVESGVGLVQAGGSLRLSCAASGRTLGVYTMGWYRQAPGKERELVAAITTGGSTKYADSVKGRFTISRDNAKNTVYLQMNSLKPEDTAVYYCATDLVFDKRYWYDYWGQGTQVTVSS”, with “low polyreactivity”; and “QVQLVESGGGLVQAGGSLRLICAASGRISVFYTMGWYRQAPGKERELVAVIRTSGGRTNYADSVKGRFTISRDNAKNTVYLQMNSLKPEDTAVYYCAARVVRYGYKYYYWGQGTQVTVSS”, with “low polyreactivity”. The same measure for “QVQLVESGGGLVQAGGSLRLSCSASGRTFGYNAMGWYRQAPGKEWELVAAIRTIGDSTYYADSVKGRFTISRDNAKNTVYLQMNSLKPEDTAVYYCAARNLRSRYDYWGQGTQVTVSS”: “high polyreactivity”; for “QVQLVESGGGLDQAGGSLRLSCAASGSTFFKYAMGWYRQAPAKERELVAAISQNGGSTYYADSVKGRFTISRDNAKNTVYFQMNSLNPEDTAVYYCATGPNSYDYWGQGNQVTVSS”: “high polyreactivity”. Take “QVQLVESGGGLVQAGGSLRLSCAASGSTFWTNDMGWYRQAPGKERELVAAISQSAGDTYYADSVKGRFTISRDNAKNTVYLQMNSLKPEDTAVYYCAADLVFYPFTWDGYYYWGQGTQVTVSS”: the “polyreactivity (PSR sort gate)” value was “low polyreactivity”. As to “QVQLVESGGGLVQPGGSLRLSCAASGSIFTPNAMGWYRPAPGKERELVAAISSSSDRTYYADSVKGRFTISRDNAKNTVYLQMNSLKPEDTAVYYCAALSKTRGGYWGHGTQVTVSS”, the “polyreactivity (PSR sort gate)” value was “high polyreactivity”. As to “QVQLVESGGGLVQAGGSLRLSCAASGSIFVLYAMGWYRQAPGKERELVAAITTGGGTNYADSVKGRFTISRDNAKNTVYLQMNSLKPEDTAVYYCNADAYGTPEFTSYAVRYDYWGQGTQVTVSS”, the “polyreactivity (PSR sort gate)” value is reported as “low polyreactivity”.

Take “QFQLVESGRGLVQAGGSLRLSCAASGNTFGPYAMGWYRQAPGKERELVAAISSGGSTNYADSVKGRFTISRDNAKNTVYLQMNSLKPEDTAVYYCAAPYRSYVRYKYDYWGQGTLVTVSS”: the “polyreactivity (PSR sort gate)” value is reported as “low polyreactivity”. The same measure for “QVQLVESGGGLVQAGGSLRLSCAASGFTFTVYAMGWYRQAPGQERELVATISRSAGRTYYADSVKGRFTISRDNAKNTVYLQMNSLKPEDTPVYYCNAAYGNGYTGGFDNWGQGTQVTVSS”: “high polyreactivity”; for “QVQLVESGGGLVQAGGSLRLSCAASGRTFKSYAMGWYRQAPWKESELVAAISYSGGSTYYADSVKGRVTISRDNAKNTVYLQMNSLKPEDTAVYYCNVVSKVIRGLSGDGYWGVGTQVTVSS”: “high polyreactivity”; for “QVQLVESGGGLVQAGGSLRLSCAASGFIFSGYAMGWYRQAPGKERELVAAITSSGGNTYYADSVKGRFTISRDNAKNTVYLQMNSLKAEDTAVYYCARYSIFRWTRDEYWGQGTQVTVSS”: “high polyreactivity”. For “QVQLVESGGGLVQAGGSLRLSCAASGFTCSRYAMGWYRQAPGKERELVAAISSGGSTNYADSVKGRFTISRDNAKNTVYLQMNSLKPEDTAVYYCAVTWRYKGYYWGQGTQVTVSS”, the “polyreactivity (PSR sort gate)” value was “high polyreactivity”.

For the sequence “QVQLVESGGGLVQAGGSLRLSCAASGRIFRYYTMGWYRQAPGKERELVAAIRLAGSTTYYADSVKGRFTISRDNAKNTVYLQMNSLNPEDSAVYSCTTRYPVPSGYDYWGHGTQVTVSS”, the “polyreactivity (PSR sort gate)” value is “high polyreactivity”. For “QVQLVESGGGLVQAGGSLRLSCAASGFTFHSYAMGWYRQAPGKERELVAAISGRGGSTYYADSVKGRFTISRDNAKNTVYLQMNSLKPEDTAVYYCARYGYHDYGYWGQCTQVTVSS”, the “polyreactivity (PSR sort gate)” value is “high polyreactivity”. For “QVQLVESWGGLVQAGGSLRLSCAASGFTFTGYAMGWYRQAPGKERELVAAISQSGGSTYADSVKGRFTISRDNAKNTVYLQMNSLKPEDTAVYYCAAVWFLLTEYDYWGQGTQVTVSS”, the “polyreactivity (PSR sort gate)” value is recorded as “low polyreactivity”. For “QVQLVESGGGLVQAGGSLRLSCAASGSTFDYNAMGWYRQAPGKERELVAAITTVGITYYADSVKGRFTISRDNAKNTVYLQMNSLKPEDTAVYYCAARSVRYGGRYDYWGQGTQVTVSS”, the “polyreactivity (PSR sort gate)” value is given as “high polyreactivity”. Then “QDQHVESGGGLVQAGGSLPLSCADSGSIFPRNAMGWYRQAPGKERELVAAISRIGGSTYYADAVKGRFTISRDNAKNTVYLQMNSLKPEDTAVYYCAAPPSEWQHDYWGQGTQVTVSS”, with “low polyreactivity”.

For “QVQLVESGGGLVQAGGSLRLSCAASGSTFPPYVMGWYRQAPGKERELVAAITWSSGSTYYADSVKGRFTISRDNAKNTVYLQMNSLKPEDTAVYYCAARAYRWGQGTQVTVSS”, the “polyreactivity (PSR sort gate)” value is “low polyreactivity”. The same measure for “QLQLVESGGGLVQAGGSLRLSCASTGSIFRPSPMGWYRPAPGKDRELVPDITWSGGSTYYADSVKGRFTISRDNAKNTVYLQMNSLKPEDTAVYYCAARFSYWARNSEYWGQGTQVTVSS”: “low polyreactivity”; for “QVQLVESGGGLVQAGGSLRLSSPASGRTFGRYTMGWYRQAPGKESELVATISYNGGRTYYADSVKGRFTISRDNAKNTVYLQMNSRKPEDTAVNYCATRLPKSSLHDYWGQGTQVTVSS”: “high polyreactivity”. Then “QVQLVESGGRLVQAGGSLRLSCAASGRTFPVYAMGWYRQAPGKERELVAAISWSGGSTYYADSVKGRFTISRDNAKNTVYLQMNSLKPEDTAVYYCAKAYHLGLGYRFDYWGQGTQVTVSS”, with “high polyreactivity”; and “QVQLVESGGGLVQAGGSLRLSCAASGLIFVYYTMGWYRQAPGKERELVARISQSGGTTYYADSVKRRFTISRDNAKNTVYLQLNSLKREDTAVYYCAAVYQLYYSGGRYYYWGQGSQVTVSS”, with “high polyreactivity”.
